Measurements from patent JP2019026625A (dated 2019).

Molecular target: T1, FLAGタグとイヌCD20の融合タンパク (Jurkat/cCD20 に過剰発現) (イヌ (dog), UniProt Q3C2E2 1-297)
T1 construct: whole, on cells; Overexpressed in Jurkat cells by retroviral transduction (pMx-IP); Used whole on cells for flow cytometry and as 1% NP40 cell lysate for immunoprecipitation; also called canine CD20-FLAG; not shown: FLAG tag added at the C-terminus
T1 sequence (looked up): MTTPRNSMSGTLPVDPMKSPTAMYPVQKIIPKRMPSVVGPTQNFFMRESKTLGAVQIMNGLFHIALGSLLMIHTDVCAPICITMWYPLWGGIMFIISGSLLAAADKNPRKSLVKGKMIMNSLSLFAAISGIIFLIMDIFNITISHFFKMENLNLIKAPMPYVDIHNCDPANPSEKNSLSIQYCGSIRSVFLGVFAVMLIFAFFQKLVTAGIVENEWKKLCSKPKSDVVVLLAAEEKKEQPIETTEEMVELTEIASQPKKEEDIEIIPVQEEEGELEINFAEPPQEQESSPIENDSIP
Experiment: flow cytometry on Jurkat/cCD20 cells, secondary antibody

binding result: binds
B1: 4E1-7抗体 (イヌCD20に対するラットモノクローナル抗体) (antibody, V domains shown)
VH: EVQLVESGGGLVQPGASLKLSCVASGFTFNDYWMSWVRQTPGKTMEWIGDIKYDGSYTNYAPSLKNRFTISRDNAKSTLYLQMSNVRSEDTATYYCTREAYYYSGDYWGQGVMVTVSS
VL: DIVLTQSPALAVSLGQRATISCKTNQNVDYYGNSYMHWYQQKPGQQPKLLIYLASNLASGIPARFSGRGSGTDFTLTIDPVEADDTATYYCQQSRNLPYTFGAGTKLELKR
notes: also called 4E1-7 antibody
